In series [1] the target is T1, Y. lipolytica F1Fo-ATP synthase subunit α (Yarrowia lipolytica, UniProt Q6C326 25-536).
T1 construct: subunit α of the mitochondrial F1Fo-ATP synthase, Yarrowia lipolytica; three copies in each F1 head, in the states αE, αTP and αDP; also called αE; αTP; source: endogenous, purified from Y. lipolytica mitochondria as part of 2YLF1Fo, 1YLF1Fo and the YLF1c10 subcomplex
Put plainly: cryo-EM structure; single-particle cryo-EM of the purified dimer 2YLF1Fo; C2 symmetry imposed; 7.8 Å overall, 6.9 Å for F1 and 6.2 Å for the Fo dimer after masking; fitted with the YLF1c10 X-ray structure and homology models of the peripheral stalk. Conditions: both partners purified.

The target of series [2] is T2, e/g heterodimer of the Y. lipolytica F1Fo-ATP synthase (subunits e and g) (Yarrowia lipolytica, UniProt B5FVG3 1-90; B5FVB8 1-138).
T2 construct: subunit e of the mitochondrial F1Fo-ATP synthase, Yarrowia lipolytica; predicted N-terminal trans-membrane helix with a GxxxG motif and a hydrophilic C terminus; subunit g of the mitochondrial F1Fo-ATP synthase, Yarrowia lipolytica; N-terminal matrix domain and predicted C-terminal trans-membrane helix with a GxxxG motif; the two subunits are not resolved from each other in the 6.2 Å map; also …
T2 sequence (looked up) 1: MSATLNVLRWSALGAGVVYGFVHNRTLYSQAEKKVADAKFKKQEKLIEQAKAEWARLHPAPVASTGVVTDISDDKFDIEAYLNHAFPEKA
T2 sequence (looked up) 2: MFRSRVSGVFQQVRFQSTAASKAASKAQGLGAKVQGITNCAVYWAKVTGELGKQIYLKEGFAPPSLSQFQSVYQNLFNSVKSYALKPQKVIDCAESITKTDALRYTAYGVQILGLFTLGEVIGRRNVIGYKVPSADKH
The description is as above. Particulars: both partners purified.

The target in series [3] is T1, Y. lipolytica F1Fo-ATP synthase subunit …. Put plainly: crystal structure; YLF1c10 subcomplex crystallised from the 1YLF1Fo complex without added nucleotides or inhibitors; 3.5 Å; molecular replacement with a model based on S. cerevisiae F1c10. Conditions: both partners purified.
Series [4] concerns the molecule itself. Described as above.
For series [5], the target named is T3, Y. lipolytica F1Fo-ATP synthase subunit a (Yarrowia lipolytica, UniProt Q36258 7-255).
T3 construct: subunit a of the mitochondrial F1Fo-ATP synthase, Yarrowia lipolytica; mitochondrially encoded; helices aH1 to aH6; source: endogenous, purified from Y. lipolytica mitochondria as part of 2YLF1Fo
T3 sequence (looked up): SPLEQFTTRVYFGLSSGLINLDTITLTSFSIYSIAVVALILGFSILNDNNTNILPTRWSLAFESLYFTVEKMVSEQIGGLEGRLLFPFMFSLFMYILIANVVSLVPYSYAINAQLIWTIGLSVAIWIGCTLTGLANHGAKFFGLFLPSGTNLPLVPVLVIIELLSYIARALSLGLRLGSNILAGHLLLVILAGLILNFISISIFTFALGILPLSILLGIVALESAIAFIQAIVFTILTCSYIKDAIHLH
Put plainly: cryo-EM structure; single-particle cryo-EM of the purified dimer 2YLF1Fo; C2 symmetry imposed; 7.8 Å overall, 6.9 Å for F1 and 6.2 Å for the Fo dimer after masking; fitted with the YLF1c10 X-ray structure and homology models of the peripheral stalk. Particulars: both partners purified.

Series [6] concerns the molecule itself. The series is described as above.

T1 sequence (Q6C326 25-536): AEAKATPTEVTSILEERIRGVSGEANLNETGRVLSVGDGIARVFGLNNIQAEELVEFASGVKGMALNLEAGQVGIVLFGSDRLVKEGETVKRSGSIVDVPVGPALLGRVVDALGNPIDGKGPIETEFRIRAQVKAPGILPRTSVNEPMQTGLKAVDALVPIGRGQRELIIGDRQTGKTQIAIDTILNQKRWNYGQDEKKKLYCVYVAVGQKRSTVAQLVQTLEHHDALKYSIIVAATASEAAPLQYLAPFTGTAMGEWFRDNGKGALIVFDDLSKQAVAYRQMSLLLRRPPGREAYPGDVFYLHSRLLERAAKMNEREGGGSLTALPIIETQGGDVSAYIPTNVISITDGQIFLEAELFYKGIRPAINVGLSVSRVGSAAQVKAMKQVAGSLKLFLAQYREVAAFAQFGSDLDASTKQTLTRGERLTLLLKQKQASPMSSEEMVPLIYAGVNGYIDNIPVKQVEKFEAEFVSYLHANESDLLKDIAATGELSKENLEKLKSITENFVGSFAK

B1: Y. lipolytica F1Fo-ATP synthase subunit h (natural protein, Yarrowia lipolytica, UniProt Q6C2V6 20-108, looked up)
chain: NLISEAYTREVRAFKAPKLSAKDAEGQVKPWSAPSAPKPPVVEGADAAELQAYAEAPVDVEGQTNSKSASPQANDEDWLAFEEEEGVAV
notes: peripheral stalk subunit h of the mitochondrial F1Fo-ATP synthase, Yarrowia lipolytica; also called equivalent of bovine F6; source: endogenous, purified from Y. lipolytica mitochondria as part of 2YLF1Fo
B1: in series [1], the binding result is given as “binds”.

B2: Y. lipolytica F1Fo-ATP synthase subunit d (natural protein, Yarrowia lipolytica, UniProt Q6CFH9 1-176, looked up)
chain: MSVAAARSSAVKVDWGKIVSSLGLTGATVSSLQAFRKRHEEAKKNAYELQNQPTTVDFAHYRKVLKNQKVVDEIEQHFKSFKPVTYDVSKQLKTIDAFEAKAIEDAKATEGKVNQEIGDLQKTLENIESARPFDQLSVDDVFKARPDLEKKIEEMVKKGRWSVPGYNEKFGSVVLM
notes: peripheral stalk subunit d of the mitochondrial F1Fo-ATP synthase, Yarrowia lipolytica; also called d subunit; source: endogenous, purified from Y. lipolytica mitochondria as part of 2YLF1Fo
For B2, the binding result in series [1] is listed as “binds”.

B3: Y. lipolytica F1Fo-ATP synthase subunit b (natural protein, Yarrowia lipolytica, UniProt Q6C105 15-217, looked up)
chain: SNQVDPKVKATSILDSIPGNNVLSKTGVLATGVLGSIYAISNELYIVNDESIVLGVFAAFVVVVAKLGGPGYTSWADGYIENMRNILNTTRDKHTDAVKERIGDVSKLKDVVKTTQDLFAVSKDTVKLEAEVFETKQQVVLAAEAKSVLDSWVRYENSVRQREQKLLTETVISKIEKDLKDPKFQQKILQQSVEDIEKLFAKA
notes: subunit b of the mitochondrial F1Fo-ATP synthase, Yarrowia lipolytica; two trans-membrane helices at its N terminus; also called peripheral stalk subunit b; source: endogenous, purified from Y. lipolytica mitochondria as part of 2YLF1Fo
B3: the binding result in series [2] and in series [1] was “binds” each time.

B4: Y. lipolytica F1Fo-ATP synthase subunit γ (natural protein, Yarrowia lipolytica, UniProt Q6C338 22-293, looked up)
chain: ATLREIEMRLKSIKNIEKITNTMKIVASTKLGKAQRAMATSKVYNEASEKVFENSETAVPENIEKRLWVVVSSDKGLCGSIHSQLARTVRRKLLDFESGEKLIDIVAVGEKIKAQLGRSNPEQMRLSFGGTGKEAPTFEEAAHIADEILALDTQYDDIEIVYNKVLSGISFEPIMKESYSAKAIEDAPKFGQYELEDDVVKNLADFSLANTIYAAMAEGHAAEISARRNAMDNASKNASDMINKYSILYNRTRQAVITNELVDIITGASSLE
notes: subunit γ of the mitochondrial F1Fo-ATP synthase, Yarrowia lipolytica; also called central γ subunit; source: endogenous, purified from Y. lipolytica mitochondria as part of the YLF1c10 subcomplex (from 1YLF1Fo)
On to B4, for which, in series [3], the binding result was “binds”.

B5: Y. lipolytica F1Fo-ATP synthase subunit c (natural protein, Yarrowia lipolytica, UniProt Q37695 1-76, looked up)
chain: MQLVLAGKYIGAGLASIGLVGAGIGIAIVFAALINGVSRNPALKGQLFTYSILGFALSEATGLFALMIAFLLLYAV
notes: subunit c (subunit 9) of the mitochondrial F1Fo-ATP synthase, Yarrowia lipolytica; mitochondrially encoded; ten copies form the rotor ring; also called c subunit; c-ring; source: endogenous, purified from Y. lipolytica mitochondria as part of 2YLF1Fo and the YLF1c10 subcomplex
For orientation: stoichiometry N means a count of units in the complex or per binding partner. Turning to B5, the “stoichiometry N” value in series [4] worked out at 10. Moreover, the binding result in series [5] is “binds”.

B6: Y. lipolytica F1Fo-ATP synthase subunit OSCP (natural protein, Yarrowia lipolytica, UniProt Q6C9B1 25-214, looked up)
chain: APVKVPVQLFGLDGTYATALYTAAAKESDLSKTEGSLAKLRDVFAQQPEVAQIVSNPTLSHEDKQTVVNVLSQAVGGDKTLTNFLTVISDNNRLALIPGIIEKFETLVNASKGLVEATVTSASELDKKTVNRIQAAIAGSSFVGEGELKLNLKVNPDILGGLIVEVAERTVDVSVASKIARLNHVLSEPI
notes: peripheral stalk subunit OSCP of the mitochondrial F1Fo-ATP synthase, Yarrowia lipolytica; source: endogenous, purified from Y. lipolytica mitochondria as part of 2YLF1Fo
For the molecule B6, the binding result in series [1] is on record as “binds”.

B7: Y. lipolytica F1Fo-ATP synthase subunit 8 (natural protein, Yarrowia lipolytica, UniProt Q36257 1-48, looked up)
chain: MPQLVPFYFTNQIFYGFASLSVIVYLFSIYILPHYLEIYVTRIFITKT
notes: subunit 8 of the mitochondrial F1Fo-ATP synthase, Yarrowia lipolytica; 48 residues; N-terminal MPQL motif, trans-membrane helix ended by Pro33; mitochondrially encoded; also called A6L in human; source: endogenous, purified from Y. lipolytica mitochondria as part of 2YLF1Fo
For the molecule B7, the binding result in series [5] was “binds”.

B8: Y. lipolytica F1Fo-ATP synthase subunit f (natural protein, Yarrowia lipolytica, UniProt Q6C9E6 7-103, looked up)
chain: LSTLIPPKVASPATLHGAPNAKRMADVVSFYKALPQGAAPALPKTANPFKLYYRKYFHPKSGKASGAPLLHLILGIFLFGYISDYQFHLKHHKNGAH
notes: subunit f of the mitochondrial F1Fo-ATP synthase, Yarrowia lipolytica; nuclear-encoded; in yeast a 100-residue subunit with a hydrophilic N-terminal domain and a predicted C-terminal trans-membrane helix; source: endogenous, purified from Y. lipolytica mitochondria as part of 2YLF1Fo
As for B8, the binding result in series [6] is on record as “binds”.

Values taken from PMC4980432, “Structure of a Complete ATP Synthase Dimer Reveals the Molecular Basis of Inner Mitochondrial Membrane Morphology” (Molecular Cell, 2016).
